Test results published in US12365710B2, “HMGB1 protein derivatives for the removal of biofilms” (RESEARCH INSTITUTE AT NATIONWIDE CHILDREN'S HOSPITAL, priority 2018, dated 2025).

Test system: Klebsiella pneumoniae biofilms
Assay: in vitro disruption of pre-formed biofilms, LIVE/DEAD, CLSM and COMSTAT
Type: cell-based
Conditions: for disruption of established K. pneumoniae biofilms (average thickness, biomass): 200 nM added at 24 h, 16 h incubation; for % reduction in average thickness (AT), mean±SE / % reduction in biomass (BM), mean±SE: 200 nM added to pre-formed biofilms at 24 h, read at 40 h, vs untreated KP biofilms
Method: FIGS. 5A-5E: Anti-biofilm effect of HMGB1 variants on high priority bacterial pathogens. Indicated HMGB1 variants or antibodies against DNABII proteins (α-1HFEc 1gG, 1 μM) were added at 24 h to the respective preformed bacterial biofilms, in vitro. After 16 h of Incubation, biofilms were stained with LIVE/DEAD®, then visualized via confocal laser scanning microscopy. Images were analyzed by COMSTAT to calculate average thickness and comparison to control was plotted. (FIG. 5A) Full-length HMGB1 isoforms (200 nM unless otherwise indicated) added to UPEC, B. cenocepacia, NTHI, or ESKAPE pathogens. 800 nM rHMGB1 and 200 nM mHMGB1 were added for S. aureus (ESKAPE). 800 nM rHMGB1, 800 nM mHMGB1, or 3.3 μM of α-1HFEc 1gG were added for E. faecium (ESKAPE) and were incubated for 1 h as opposed to 16 h to avoid potential degradation by E. faecium proteases. (FIG. 5B) Representative images of UPEC biofilms incubated with increasing concentrations of rHMGB1. (FIG. 5C) Individual domains of HMGB1 (200 nM) were tested for anti-biofilm activity as above (dotted line indicates control values). Bars represent the SEM. Statistical significance compared to control was assessed with unpaired t-tests, *P<0.05. […] (FIGS. 5D-5E) HMGB1 and variants disrupt preformed Klebsiella pneumoniae biofilms. rHMGB1, HMGB1 C45S (mHMGB1), bovine HMGB1 (bHMGB1), B box, B Box C106S (mB Box), A Box, and A+B Box were added (200 nM) at 24 h to preformed K. pneumoniae biofilms. After 16 h of incubation, biofilms were stained with LIVE/DEAD®, then visualized via confocal laser scanning microscopy. Images were analyzed by COMSTAT to calculate average thickness and total biomass. Error bars represent the SEM. ***P<0.0001; ns=not significant.
An in vitro biofilm assay was used to test the effect of HMGB1 and its variants on established bacterial biofilms. Applicant expressed, (in E. coli) and purified >95% human recombinant full length HMGB1 (rHMGB1; 1-215), a C45S mutated variant (mHMGB1) and the HMGB1 domains A Box (1-89), A+B Boxes (1-176), B Box (80-179), and B Box C106S (mB Box) (FIG. 3). […] To evaluate the effect of HMGB1 and its variants as well as a commercially available native bovine HMGB1 (used as a control) on established bacterial biofilms, each protein was added (at 200 nM), to pre-formed Klebsiella pneumoniae biofilms after 24 h of growth. After a 16 h incubation (40 h total biofilm growth), the biofilms were stained with LIVE/DEAD® and analyzed using confocal laser scanning microscopy (CLSM) and COMSTAT analysis to calculate the average thickness and total biomass of the biofilms. […] The results of this study lead to a noteworthy observation that a single dose of these non-antimicrobial compounds was able to disrupt recalcitrant biofilms. In addition, the HMGB1 variants have disrupted every bacterial species tested to date, which includes Uropathogenic E. coli, Burkholderia cenocepacia, Nontypeable Haemophilus influenzae (FIG. 6). A single dose at this concentration released of bacteria from their protective shield makes them vulnerable to clearance by antibiotics and the immune system.
Klebsiella pneumoniae (KP), a common cause of nosocomial infections was used for all BBs disruption assays. Human recombinant full length HMGB1 (rHMGB1; 1-215), a C45S mutation variant (mHMGB1) and the HMGB1 domains A Box (1-89), B Box (90-176), AB Boxes (1-176), B-linker Box (80-179), and B-linker Box C106S were expressed (in E. coli) and purified to >95%. To evaluate the effect of rHMGB1 and the various domains on established BBs, each protein species (200 nM) was added to pre-formed BBs at 24 h. At 40 h the BBs were washed, stained with LIVE/DEAD®, visualized via confocal laser scanning microscopy and images were analyzed by COMSTAT to calculate average thickness and biomass.

| Molecule | disruption of established K. pneumoniae biofilms (average thickness, biomass) | % reduction in average thickness (AT), mean±SE | % reduction in biomass (BM), mean±SE |
| --- | --- | --- | --- |
| rHMGB1: tagless human recombinant full length HMGB1 (1-215) expressed in E. coli | significantly disrupt | 44%±0.33 | 61%±0.01 |
| mHMGB1: engineered C45S variant of full length rHMGB1 that mimics the reduced form of HMGB1 (protein, UniProt P09429 1-215, looked up, variant C45S, full-length, engineered C45S variant of full length rHMGB1 that mimics the reduced form of HMGB1) MGKGDPKKPRGKMSSYAFFVQTCREEHKKKHPDASVNFSEFSKKSSERWKTMSAKEKGKFEDMAKADKARYEREMKTYIPPKGETKKKFKDPNAPKRPPSAFFLFCSEYRPKIKGEHPGLSIGDVAKKLGEMWNNTAADDKQPYEKKAAKLKEKYEKDIAAYRAKGKPDAAKKGVVKAEKSKKKKEEEEDEEDEEDEEEEEDEEDEDEEEDDDDE | – | 75%±0.04 | 80%±0.01 |
| B-linker Box: HMGB1 B Box with N- and C-terminal linker (80-179; 80 to 176 in b258), 97 amino acid (protein, UniProt P09429 80-179, looked up, fragment) PPKGETKKKFKDPNAPKRPPSAFFLFCSEYRPKIKGEHPGLSIGDVAKKLGEMWNNTAADDKQPYEKKAAKLKEKYEKDIAAYRAKGKPDAAKKGVVKAE | retained full anti-biofilm activity | 77%±0.03 | 67%±0.01 |
